In patent publication US20040265295:

Biological target: T1, His-PIPKIγ661 C-terminus, wild-type (439-661)
T1 chain: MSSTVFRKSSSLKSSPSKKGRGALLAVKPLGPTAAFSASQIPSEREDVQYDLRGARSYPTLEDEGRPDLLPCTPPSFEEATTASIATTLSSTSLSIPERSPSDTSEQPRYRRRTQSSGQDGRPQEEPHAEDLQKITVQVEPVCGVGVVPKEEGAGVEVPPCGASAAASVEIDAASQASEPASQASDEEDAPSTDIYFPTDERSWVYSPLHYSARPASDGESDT

B1: focal adhesion-associated kinase (FAK) (protein)
chain: MAAAYLDPNLNHTPSSSTKTHLGTGMERSPGAMERVLKVFHHFESSSEPTTWASIIRHGDATDVRGIIQKIVDSHKVKHVACYGFRLSHLRSEEVHWLHVDMGVSSVREKYELAHPPEEWKYELRIRYLPKGFLNQFTEDKPTLNFFYQQVKSDYMQEIADQVDQEIALKLGCLEIRRSYWEMRGNALEKKSNYEVLEKDVGLKRFFPKSLLDSVKAKTLRKLIQQTFRQFANLNREESILKFFEILSPVYRFDKECFKCALGSSWIISVELAIGPEEGISYLTDKGCNPTHLADFNQVQTIQYSNSEDKDRKGMLQLKIAGAPEPLTVTAPSLTIAENMADLIDGYCRLVNGATQSFIIRPQKEGERALPSIPKLANSEKQGMRTHAVSVSHCQHKVKKARRFLPLVFCSLEPPPTDEISGDETDDYAEIIDEEDTYTMPSKSYGIDEARDYEIQRERIELGRCIGEGQFGDVHQGVYLSPENPALAVAIKTCKNCTSDSVREKFLQEALTMRQFDHPHIVKLIGVITENPVWIIMELCTLGELRSFLQVRKYSLDLASLILYAYQLSTALAYLESKRFVHRDIAARNVLVSSNDCVKLGDFGLSRYMEDSTYYKASKGKLPIKWMAPESINFRRFTSASDVWMFGVCMWEILMHGVKPFQGVKNNDVIGRIENGERLPMPPNCPPTLYSLMTKCWAYDPSRRPRFTELKAQLSTILEEEKVQQEERMRMESRRQATVSWDSGGSDEAPPKPSRPGYPSPRSSEGFYPSPQHMVQTNHYQVSGYPGSHGIPAMAGSIYQGQASLLDQTELWNHRPQEMSMWQPSVEDSAALDLRGMGQVLPPHLMEERLIRQQQEMEEDQRWLEKEERFLKPDVRLSRGSIDREDGSFQGPTGNQHIYQPVGKPDPAAPPKKPPRPGAPGHLSNLSSISSPADSYNEGVKLQPQEISPPPTANLDRSNDKVYENVTGLVKAVIEMSSKIQPAPPEEYVPMVKEVGLALRTLLATVDETIPALPASTHREIEMAQKLLNSDLGELISKMKLAQQYVMTSLQQEYKKQMLTAAHALAVDAKNLLDVIDQARLKMLGQTRPH
in vitro kinase assay, phosphorylation of the recombinant substrate: while FAK does not
